# Assay results taken from a protein production outcome set (Wang et al. 2014).
# Experiment: label from the status in PepcDB records
row,Sequence,protein production
1,LAKILGMDSDGLNRLECFDISHTQGEATIASCVVYDEQNIQPSQYRRYNITTAKPGDDYAAMREVLTRRYGKMQEAEANGETVKWPDAVLIDGGKGQIGVAVSVWEELGLHIPLVGIAKGPERKAGMEELILPFTGEVFRLPPNSPALHLLQTVRDESHRFAI,failed
2,LAVIVVLGCFALGLGGIIGFVHKGEDYQAYQKLQWHTLAPEKIAPLVAQGYTVFVDITSDWCSICQTNKAEVTHREQVVNALMADDIILMQGNWSEADNTIAGYMQYEGIPGTPYNKIYGPRNPNGIVLPSKLTIEAVINGLAQA,failed
3,LAYEELRQREAQTAMQLAVNNALLTIKDRSRMLLAVCEQIDKLVPCTFLGIRVMDRDGNFRIFDNFMRETPSGFFPVSAHEKLDVPDFAEMARESFSLITSPGCFSGEAFQLLCDKYRLVGLVREKFNICSLISVRLWDLPGSCAGLIISDTSRAFDEHDQETVGLIVPQLSLALQNYLAFEEIDKLRRKLEGEKAYLFEEIKATHD,failed
4,LDLMKEKNLIQKFFKELIKDDGGLSAYGEAQVMKYLEMGAIDTLIVTEDIGITRVTVKCNNCDYAQEVNVKTNEMFKFEEQLKTKACPTCGGAMYIDEEKDIIEHLSDLCHMHNTDIIVVSTDTEEGSQISRAFKGMAAILRYKL,not failed
5,LDNRFNYINVPGLGGSGEHHWQTFWEQAYPEIHRVQQADWDHPICSVWVNKLQLITETCSDKPVVLIAHSLGCVTVLHAVAQRKLKGIAGAFLVAMPDAERADFPKECIGFIPVPRIVLPFPAVMIASENDPYITSPELKKWADVIQASFVSVGQRGHIGTAAQLTYWEEGQQLFRSFVEQL,failed
6,LENCVFCKIIKRELPSTIYYEDERVIAIKDINPAAPVHVLIIPKEHIANVKEINESNAQILIDIHKAANKVAEDLGIAEKGYRLITNCGVAAGQTVFHLHYHLLGGVDMGPKIL,not failed
7,LEYQKSQPPQPGDKFVSVVSQFITVASFSFSDVEDLLAEAKDLFTKAVKHFGEEAGKIQPDEFFGI,failed
8,LFSSRDILEVLQDIHMETGETVAIATKNDIYLQYIQIIESVHALRFHVDENAIRPLTMSSNGWMLMSTMNDKAIDNTVRRANTITQKDGIRFEVDDMMARIRQVREQGYASAEHIPFVGGGTICVLLPMTIQGQPVTMGLGGALDRIKQNYDRYLELLLNGVQQLKKSDSFHQPI,not failed
9,LGTVIQENSRSGGEQSANFFVNGPLAENLLLQVYGQYTAREEDDIDYGYEDKDMQSISSKLIYQINDRHSVQLEGGTSAQSRRGNVGLSVPTTGCRRGCEDSLNEYRRNYVTLSHTGEWELLGNSDTYLQREESENKSREMTIVNTTFKSSLVKGLGAHTLTTGVDATHAELEDFTSNKASSKTKASNTQWAVFIEDEWKIAEPFSLTLGGRLDHDENYGAHFSPRVYGVWRVAPAWTVKGGVATGFRSPQLREITPGWAQVSGGGNIYGNPDLDPETSLNKEISVLYQGDSGLDVTLTAFHNEFKDKITRVVCPDTICTDGPNQWGADPTYRINVDEAVTQGVEATLAKPLTETIYLSSSYTFTDSEQKTGEYKGMPLQQLPKHLFNVDVTWQTTDNLESWTKVTYRGKEMDPVTGPSRNSIVEPAYTFVDAGVTYQLTDNTKIKGAIYNLFDEDINYKEYGYVEDGRRYWLGLDVAF,failed
10,LIKRMNAEELLHEKIEFNDLLLRSVENPIFWRDSRGFLIDCNAQFTRLLGISKDRLVGRSVYDICGDLHTPVLEGLLTKVLQGEGEQYDIDFKNHEGETLSFLVQASEYHDKSEKVAGVVTILFDMT,failed
11,LKDVLNILLMDEISKLKDFLSNLDYIKPKVNIEEEIIEIRKEDIINALKLFKGKYEIEVDKIPKAVYVYLVKKNILFLYPQRGTLKPQSFLVWNAIKRVL,not failed
12,LKKLPAEIYLIDEQAKTSVQDFEYASYYHSSATVNTGTFNECRSADLVLFFQEEMSNESFSNEDNLALIKEKVKKMMATGFQGIVLVATAESNIVASLIKHFSGLPANQIITPG,failed
13,LKVMLRPILPEDEPKHLAFDNSLSDEDRYKRYFGVRSKMTHEEMAVLTQIDYAREMAFIATAKGPDGDDITLGAVRASIDPDNTEAEFAMAVRGDHQGIGLGKLLLEKLIKYYQANDTPVLTGFTMFENRNMASLAKNLGFKVTFDME,failed
14,LKYMYKIDDDKKYILYCPTWRGNQRKEVTQINLKDLLKYLPENYEIIVKLHPNESHLRTRYNQIDNRIHCYFNELVDIQELYILSECMITDYSSTIFDYIHLNKPVFILQEDEQQYKQSVGFYFDLFEVGDFLKASLNERMLAKQICSTDYINYSKVVHRLMKQDSSKSSEKLMAEILG,failed
15,LNLMMTPMLKVLATPERLAFGLKQMVSYLHANGVTAYMEPGALYTPDMWKLYEQILGAPETPMYATFIADGRGIVDRVGLDGALDAVEQQIAVAPEAPGRKLMFFPGQIKLFADGAIISQLMQMKDGYLDGHQGEWIIPPDELERRARLFWNAGYQIHTHVNGDLGLEKLLDILEKLNAEHPRPDHRSVIVHFANSTEDQVARIKRLGALVSANPYYTTGFADKYSAVGLGPERADAMVRAKSVLDQGVPLSYHSDLPMAPSAPLYLAWCGVNRLTPSGRVAGPEQRVSVDAALRAITIEAAYSWRHEDQ,failed
16,LNSSYVNGNTAGNLYNAGLFCESDGEVFFSNTNDNGRLYAMNIDGSNIHKLSNDTAMYINADKNYVYYVRNNNQKITSQTFFSYDRNSLCRIKRNGHGSTVLDPDPCIYASLIGNYIYYLHYDTQTATSLYRIRIDGEEKKKIKNHYLFTCNTSDRYFYYNNPKNGQLYRYDTASQSEALFYDCNCYKPVVLDDTNVYYMDVNRDNAIVHVNINNPNPVVLTEANIEHYNVYGSLIFYQRGGDNPALCVVKNDGTGFKELAKGEFCNINVTSQYVYFTDFVSNKEYCTSTQNPDTIKALQP,not failed

row,Sequence,protein production
1,LQCEICGFTCRQKASLNWHQRKHAETVAALRFPCEFCGKRFEKPDSVAAHRSKSHPALLLAPQES,not failed
2,LQESEARFQAFMNNSPSASWITDDHGRMLYLSQTYVRTFQLPFDKVEDVTGKTVFELYTPEVAQPFLDNIHRVAQTQQILETIEKAPRLDGTLGDFLVYKFPLPATTGELFIGGVAVDISDKIRAEQALQKLNQELEAR,not failed
3,LQSKLSLPKIPNVIECFDISHLSGTATVGSMVQFRGGRPDKHNYRRFKIESVEGIDDFASIAEVVRRRYSRLLEDKHEMPDLIIIDGGKGQLSSAFQELRKLRVKVPIISIAKREEEIYVPGLKSPLPIKKDEKASLFVQEIRDEAHRFAINYNRLLRQKALIQK,failed
4,LRGFVPSSVWLERGVFPPSNEEVIKLGLSPTSMVARLKRQRLADGVVMAIEMSTMPVAYLPDPQAVGTSLYAHLDATGHSVVRALQHIRAVNASGDVAQLAGIRPGEAMLLITRIGFNADNVAIELTDTYCRNDYYDFVAELKR,not failed
5,LRSNRVTQHPPLQLSLPVHLPDDETFTSYYPAAGNDELIGALKSAASGDGVQAIYLWGPVKSGRTHLIHAACARANELERRSFYIPLGIHASISTALLEGLEQFDLICIDDVDAVAGHPLWEEAIFDLYNRVAEQKRGSLIVSASASPMEAGFVLPDLVSRMHWGLTYQLQPMMDDEKLAALQRRAAMRGLQLPEDVGRFLLNRMARDLRTLFDVLDRLDKASMVHQRKLTIPFVKEMLRL,not failed
6,LRSPRLYTHRLILRPWLVQDRARFAELNADPLVMEFFPSCLDRAQSDALLRRIDAHFAEHGFGWWALQVKGGDPFIGYVGLEVVDFDAPFVPAVAIGWRLAAEHWAEGFAHEAAEAALSYAFDTLGLDQVVAFTVPANENSLGLMERLGMHRDPTDDFEHPDLPPGHRLRHHVLYRLTREDWLRR,not failed
7,LSDPNLVLFYVKNPAKSEEFYKNLLDTQPIESSPTFAMFVMKTGLRLGLWAQEEIEPKAHQTGGGMELSFQVNSNEMVDEIHRQWSDKEISIIQPPTQMDFGYTFVGVDPDEHRLRIFCLKRT,not failed
8,LTLDLAPVTPKDAPLLHRVFHLSPSYFALIGMELPTLEDVVRDLQTLEVDPRRRAFLLFLGQEPVGYLDAKLGYPEAEDATLSLLLIREDHQGRGLGRQALERFAAGLDGVRRLYAVVYGHNPKAKAFFQAQGFRYVK,not failed
9,LTRWGAFRNITLPLALPGLAAAAMFTFVMSWNEVFVASILTLKNRTLPAQILSIVAGAAGGAAPAYYKFAAAFIMTLPAMLFIFFARRYLVTMWGITL,failed
10,LVVSIRVQGDKRLSSLRRCCALTRYDAHKMSHDAFTVIKNCNTSGIQTEWSPPLTMLFLCATKFSASAP,failed
11,LYLAGIGQYAALLEAGFARARSAEETVRLLVTSYIDWVVANPDWARFILHSRGRVEAGELGERLRADNQAHFARIHAALAGYRAEGLFREMPDDCFASVVIGPAHDLARQWLAGRTRVALADCRELLAQVAWDSVRAA,not failed
12,MAAASPLRDCQAWKDARLPLSTTSNEACKLFDATLTQYVKWTNDKSLGGIEGCLSKLKAADPTFVMGHAMATGLVLIGTGSSVKLDKELDLAVKTMVEISRTQPLTRREQLHVSAVETFANGNFPKACELWEQILQDHPTDMLALKFSHDAYFYLGYQEQMRDSVARIYPFWTPDIPLSSYVKGIYSFGLMETNFYDQAEKLAKEALSINPTDAWSVHTVAHIHEMKAEIKDGLEFMQHSETFWKDSDMLACHNYWHWALYLIEKGEYEAALTIYDTHILPSLQANDAMLDVVDSCSMLYRLQMEGVSVGQRWQDVLPVARKHSRDHILLFNDAHFLMASLGAHDPQTTQELLTTLRDASESPGENCQHLLARDVGLPLCQALVEAEDGNPDRVLELLLPIRYRIVQLGGSNAQRDVFNQLLIHAALNCTSSVHKNVARSLLMERDALKPNSPLTERLIRKAATVHLMQ,failed
13,MAACPELVDATFAILASGWHSTAVEVGGRWVFKFPRGAEAEAALLREAAVLRLVRPAVSLPVPAPQVFAGPPLFSRHEKLPGGYLLGEDYRRLDEPARQAVGDALGRFYAELHRLPPARMRAVGALPVRPWESPAAMRRRALPLLPAAWRERAERLVREYAKLPADPLGSIFGFFDGHGWNMAFDSEAGRLNGVYDFADAGIGPLHQEFIYSAFIDADLTERIVAAYERFSGRRLERRRIALLTAAHRLSELAELADEPRHLPDMLAGALDGLALAEAQGLA,failed
14,MAAILISLIGKYGMNGIFIATFMAGIFLLLAGIFRLGNLISLIPSPVITGFTSGIAIIIASGQIKNFFGIEHFTGSFFDLMKFISGLHIDYPSTIIGLLTILLMIFYPKSWGKKFPASLLAILLSTLAVLALKLDIPLVGKIPTTLIPQAHLRLTELNPQDMKTLLIPAISITVLGMTESLLCGASAGRATNHPMDNNQELVAQGIGNIFIPFFGGIPATAAIARTSVAIKAGAQTRLTGIIHALILLLSMFLFAPFMTHIPLSALAGVLIMTAVRMNEWEAIRFLFKNKLKSGIIEFFVTMIITVIFDLSTAILAGIVVGFLLFIVKISQIEINSSQIEPERISQNHHEVFTDWTVIYISGPLFFLNSSKLKQAIDELPANTNAVLSLRGVPMIDVTSIKLLIDIYSIFHKEERQIVFASMNPKLKESFKRTGLISMVGEEAIYPSVNEFLLDLVDKNK,failed
15,MAAKKPLFEVIASKIKDSINRDEYKTGMLMPNETALQEIYSSSRTTIRRAVDLLVEEGLVVRKNGVGLYVQPKLTAQNILEMTGVMKNDTNENLKKDIKDFYIRKAGKFYAEIFGMKENELVYSIKFVQKSEHGATLDRLILPLGLYPDLQAKDFQIINIIELVNSGKYKLFELEQELQLILAGNEQIKNMHLNENDPVFKLSSVFYAENDMPIAIQYHYEDAESTKYVVDFN,not failed
